Results published in patent publication US20230287120A1 (ALLOGENE THERAPEUTICS, published 2023).

T1: mouse DLL3 extracellular domain (ECD) with C-terminal 8xHis tag and Avi tag (mouse, UniProt O88516 33-490)
T1 construct: extracellular domain; Expressed in Expi293, purified by IMAC and SEC; also called msDLL3; not shown: Avi tag
T1 sequence: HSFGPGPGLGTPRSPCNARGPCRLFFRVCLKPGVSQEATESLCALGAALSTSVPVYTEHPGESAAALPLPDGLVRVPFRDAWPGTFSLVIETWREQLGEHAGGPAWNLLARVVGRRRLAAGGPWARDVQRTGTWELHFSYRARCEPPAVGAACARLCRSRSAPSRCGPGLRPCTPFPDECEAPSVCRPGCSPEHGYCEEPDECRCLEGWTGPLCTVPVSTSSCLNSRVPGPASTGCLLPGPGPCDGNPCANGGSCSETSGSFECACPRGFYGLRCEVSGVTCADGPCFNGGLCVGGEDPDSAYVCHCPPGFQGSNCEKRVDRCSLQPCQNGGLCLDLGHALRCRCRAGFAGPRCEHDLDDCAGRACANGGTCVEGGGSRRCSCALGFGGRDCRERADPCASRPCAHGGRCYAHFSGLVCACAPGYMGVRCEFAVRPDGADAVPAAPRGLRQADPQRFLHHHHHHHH

T2: human DLL3 extracellular domain (ECD) with C-terminal 8xHis tag and Avi tag (human, UniProt Q9NYJ7 27-492)
T2 construct: extracellular domain; Expressed in Expi293, purified by IMAC and SEC; also called huDLL3; not shown: Avi tag
T2 sequence: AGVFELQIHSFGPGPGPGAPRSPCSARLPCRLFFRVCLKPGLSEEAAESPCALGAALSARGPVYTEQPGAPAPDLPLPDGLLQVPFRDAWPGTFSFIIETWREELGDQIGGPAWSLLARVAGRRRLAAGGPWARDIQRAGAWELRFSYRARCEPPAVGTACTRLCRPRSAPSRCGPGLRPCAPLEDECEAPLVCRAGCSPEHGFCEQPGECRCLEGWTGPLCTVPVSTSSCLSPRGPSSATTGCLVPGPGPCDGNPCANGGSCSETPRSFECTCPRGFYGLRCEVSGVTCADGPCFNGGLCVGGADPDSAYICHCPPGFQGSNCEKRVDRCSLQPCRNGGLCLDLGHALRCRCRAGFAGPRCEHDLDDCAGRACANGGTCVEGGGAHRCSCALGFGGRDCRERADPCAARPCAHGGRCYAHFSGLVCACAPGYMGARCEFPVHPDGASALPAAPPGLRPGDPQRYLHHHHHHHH

T3: cynomolgus monkey DLL3 extracellular domain (ECD) with C-terminal 8xHis tag and Avi tag (cynomolgus monkey, UniProt A0A2K5WSR1 27-490)
T3 construct: extracellular domain; Expressed in Expi293, purified by IMAC and SEC; also called cynoDLL3; cyno DLL3; not shown: Avi tag
T3 sequence: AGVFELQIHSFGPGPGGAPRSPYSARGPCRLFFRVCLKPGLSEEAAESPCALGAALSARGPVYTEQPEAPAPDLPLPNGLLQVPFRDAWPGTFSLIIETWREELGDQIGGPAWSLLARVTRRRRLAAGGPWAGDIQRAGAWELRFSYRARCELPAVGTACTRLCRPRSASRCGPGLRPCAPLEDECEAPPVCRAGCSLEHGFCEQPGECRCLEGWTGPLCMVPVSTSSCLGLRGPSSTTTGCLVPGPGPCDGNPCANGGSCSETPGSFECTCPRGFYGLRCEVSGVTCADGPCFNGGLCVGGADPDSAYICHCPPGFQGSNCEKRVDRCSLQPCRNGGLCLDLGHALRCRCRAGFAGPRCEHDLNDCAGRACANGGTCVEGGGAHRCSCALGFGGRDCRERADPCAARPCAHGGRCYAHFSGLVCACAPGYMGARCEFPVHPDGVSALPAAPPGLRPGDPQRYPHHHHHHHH

B1: 8E11 scFv-Fc fusion (Fc fusion, not shown: a dimerising Fc or GST)
scFv: QVQLQESGPGLVKPSETLSLTCTVSGDSISNYYWTWIRQPPGKGLEWIGYIYYSGTTNSNPSLKSRVTVSLDTSKSQFSLNLSSVTAADTAVYYCARVFNRGFAFDIWGQGTMVTVSSGGGGSGGGGSGGGGSGGGGSEIVLTQSPGTLSLSPGERATLSCRASQRISNTYLAWYQQKPGQAPRLLIYGASSRATGIPDRFSGSGSGTDFTLTISRLEPEDFAAYYCQQYDTSPLTFGGGTKVEIK
notes: scFv-Fc expressed in Expi293
B2: 4H8 scFv-Fc fusion (Fc fusion, not shown: a dimerising Fc or GST)
scFv: QVQLQQSGPGLVKPSQTLSLTCAISGDSVSSNSATWNWIRQSPSRGLEWLGRTYYRSKWYDDYAVSVKSRITINPDTSKNHLSLHLNSVTPEDTAVYYCAGGGLVGAPDGFDVWGQGTMVTVSSGGGGSGGGGSGGGGSGGGGSQSVLTQPPSASGTPGQRVTISCSGSSSNIGSDPVNWYQQLPGTAPKLLIYSNNQRPSGVPDRFSGSKSGTSASLAISGLQSEDEADYYCSAWDDSLNGYVFGTGTKVTVL
notes: scFv-Fc expressed in Expi293
B3: 2G1 scFv-Fc fusion (Fc fusion, not shown: a dimerising Fc or GST)
scFv: QLQLQESGPGLVKPSETLSLTCTVSGGSISSSSYYWGWIRQPPGKGLEWIGSIYYSGNIYHNPSLKSRVSISVDTSKNQFSLRLSSVTAADTAVYYCAREIIVGATHFDYWGQGTLVTVSSGGGGSGGGGSGGGGSGGGGSAIQMTQSPSSLSASVGDRVTITCRASQGIRNDLGWYQQKPGKAPELLIYAASSLQSGVPSRFSGSGSGTDFTLTISSLQPEDFATYYCLQDYNYPLTFGPGTKVDIK
notes: scFv-Fc expressed in Expi293
B4: 6D8 scFv-Fc fusion (Fc fusion, not shown: a dimerising Fc or GST)
scFv: QITLKESGPTLVKPTQTLTLTCTFSGFSLSTRGVGVGWIRQPPGKALEWLALIYWNDDKRYSPSLQTRLTITKDTPKNQVVLTMTNMDPVDTATYYCARSNWGNWYFALWGRGTLVTVSSGGGGSGGGGSGGGGSGGGGSEIVLTQSPATLSLSPGERATLSCRASQSVSSYLAWYQQKPGQAPRLLIYDAFYRATGIPARFSGSGSGTDFTLTISSLEPEDFAVYYCQHRSNWPITFGQGTRLEIK
notes: scFv-Fc expressed in Expi293
B5: 6F8 scFv-Fc fusion (Fc fusion, not shown: a dimerising Fc or GST)
scFv: QVQLVQSGAEVKKPGSSVKVSCKASGGTFTNYCISWVRQAPGQGLEWMGGIIPIFGTTNYAQTFQGRVTITADKSTSTAYMELSSLRSEDTAVYYCARDNGDRYYYDMDVWGQGTTVTVSSGGGGSGGGGSGGGGSGGGGSQSVLTQPPSVSAAPGQKVTISCSGSSSNIGNNYVSWYQQLPGTAPKLLIYDNNKRPSGIPDRFSGSKSGTSATLGITGLQTGDEADYYCGTWDSSLSAVVFGGGTKLTVL
notes: scFv-Fc expressed in Expi293
B6: 26C8 scFv-Fc fusion (Fc fusion, not shown: a dimerising Fc or GST)
scFv: QVQLQESGPGLVKPSETLSLTCTVSDNSISNYYWSWIRQPPGKGLEWIAYIYYSGTTNYNPSLKSRVTISLDTSKNQFSLQLSSVTAADAAVYYCARVFHWGFAFDIWGQGTMVTVSSGGGGSGGGGSGGGGSGGGGSEIVLTQSPGTLSLSPGERATLSCRASQRVSNTYLAWYQQNPGQAPRLLIYGASSRATGIPDRFSGSGSGTDFTLTISRLEPEDFAVYYCQQYGTSPLTFGGGTKVEIK
notes: scFv-Fc expressed in Expi293
B7: 2A6.C5 scFv-Fc fusion (Fc fusion, not shown: a dimerising Fc or GST)
scFv: QVQLQESGPGLVKPSETLSLTCTVSNVSISSYYWSWIRQPPGKGLEWIGYIYYSGTTNYNPSLKSRVTMSVDTSKNQFSLKLSSVTAADTAVYFCARLSNWGFAFDIWGQGTMVTFSSGGGGSGGGGSGGGGSGGGGSEIVLTQSPGTLSLSPGERATLSCRASQTISSSYLAWYQQKPGQAPRLLIYGASSRATGIPDRFSGSGSGTEFTLTISRLEPEDFAVYYCQQYGWSPITFGQGTRLEIK
notes: scFv-Fc expressed in Expi293
B8: 10G1-K scFv-Fc fusion (Fc fusion, not shown: a dimerising Fc or GST)
scFv: EVQLLESGGGLVQPGGSLRLSCAASGFTFSSYAMNWVRQAPGKGLEWVSTISGSGGSTYYADSVKGRFTISRDNSKNTLYLQMNSLRAEDTAVFYCAIDPEYYDILTGGDYWGQGTLVTVSSGGGGSGGGGSGGGGSGGGGSDIQMTQSPSAMSASVGDRVTITCRASQGISNYLAWFQQKPGKVPKRLIYAASSLQSGVPSRFSGSGSGTEFTLTISSLQPEDFATYFCLQHDSFPLTFGGGTKVEIK
notes: scFv-Fc expressed in Expi293
B9: 9D3 scFv-Fc fusion (Fc fusion, not shown: a dimerising Fc or GST)
scFv: QVQLQESGPGLVKPSETLSLTCTVSDDSISNYYWSWIRQPPGKGLEWIGYIFYSGTTNHNPSLKSRLTISLDKAKNQFSLRLSSVTAADTAVYYCARVFNWGFAFDIWGQGTMVTVSSGGGGSGGGGSGGGGSGGGGSEIVLTQSPGTLSLSPGERATLSCRASQRISRTYLAWYQQKPGQAPRLLIYGASSRATGIPDRFTGSGSGTDFTLTISRLEPEDFAVYYCQQYGTSPLTFGGGTKVEIN
notes: scFv-Fc expressed in Expi293
B10: 9H12-K scFv-Fc fusion (Fc fusion, not shown: a dimerising Fc or GST)
scFv: QVQLVQSGAEVKKPGASVKVSCKASGYTFTGYSIHWVRQAPGQGLEWMGWINPNSGGTFYAQKFQGRVTMTRDTSISTVYMELSRLRSDDTAVYYCARDGWGDYYYYGLDVWGQGTTVTVSLGGGGSGGGGSGGGGSGGGGSDIQMTQSPSSVSASVGDRVTITCRASQDISSWLAWYQQKPGKAPKLLIYTASSLQGGVPSRFSGSGSGTDFTLTISSLQPEDLATYSCQQANVFPYTFGQGTKLEIK
notes: scFv-Fc expressed in Expi293
B11: 3F2 scFv-Fc fusion (Fc fusion, not shown: a dimerising Fc or GST)
scFv: QVQLQESGPGLVKPSGTLSLTCAVSGGSISSNNWWSWVRQPPGKGLEWIGDIHHSGSTNYKPSLKSRVTISVDKSKNQFSLNLISVTAADTAVYYCAREAGGYFDYWGQGILVTVSSGGGGSGGGGSGGGGSGGGGSDIQMTQSPSTLSASVGDRVTITCRASQSISSWLAWYQQKPGKAPKLLISKASSLESGVPSRFSGSGSGPEFTLTISSLQPADFATYYCQQYNSYSTFGQGTKLEIK
notes: scFv-Fc expressed in Expi293
B12: 7F9 scFv-Fc fusion (Fc fusion, not shown: a dimerising Fc or GST)
scFv: EVQLVESGGGLVQPGGSLRLSCAASGFTFSSHDMHWVRQATGKGLEWVSAIGIAGDTYYSGSVKGRFTISRENAKNSLYLQMNSLRAGDTAVYYCARANWGEGAFDIWGQGTMVTVSSGGGGSGGGGSGGGGSGGGGSDIQMTQSPSSLSASVGDRVTITCRASQGISDYLAWYQQKPGKIPKLLIYAASTLQSGVPSRFSGSGSGTDFTLTISSLQPEDVATYYCQKYNSVPLTFGGGTKVEIK
notes: scFv-Fc expressed in Expi293
B13: 17A2 scFv-Fc fusion (Fc fusion, not shown: a dimerising Fc or GST)
scFv: QVQLQESGPGLVKPSGTLSLTCVVFGDSISSSNWWSWVRQPPGKGLEWIGEVFHSGSTNYNPSLKSRVTISVDKSKNQFSLKLSSVTAADTAVYYCARAAVAGALDYWGQGTLVTVSSGGGGSGGGGSGGGGSGGGGSDIVMTQSPDSLAVSLGERATINCKSSQSVLYSSNNKNYLAWYQQKPGQPPNLLVYWASTRESGVPDRFSGAGSGTDFTLTISSLQAEDVAVYYCQQYYGTSWTFGQGTKVEIK
notes: scFv-Fc expressed in Expi293

The binders below were run against T1, mouse DLL3 extracellular domain (ECD) … (assay: SPR (Biacore), 37 C; scFv-Fc captured on chip, mouse DLL3 ECD in solution; 1:1 Langmuir fit).
Experimental: (§1) The antibody binding kinetics were determined by surface plasmon resonance (Biacore™ surface plasmon resonance (SPR) system, GE Healthcare Bio-Sciences, Pittsburgh Pa.). The antibodies diluted in HBS-T+ running buffer (0.01 M HEPES pH 7.4, 0.15 M NaCl, 0.05% v/v Tween20, 1 mg/mL BSA) were captured on a CM4 chip immobilized with an antibody specific for the anti-DLL3 antibody constant domains. Purified DLL3 was serially diluted into HBS-T+, injected for 2 min at 30 uL/min and a dissociation time of 10 min then the surface regenerated with either 10 mM Glycine-HCl pH 1.7 or phosphoric acid between injections. […] Equilibrium dissociation constant (Kd) values are calculated as koff/kₒₙ.

Row | Binder | Kd [nM]
1 | B1 | 7.03
2 | B2 | 18.6
3 | B3 | 2.61
4 | B4 | < 1.5
5 | B5 | 19.3
6 | B6 | 3.05
7 | B7 | 42.1
8 | B8 | 27.7
9 | B9 | 7.19

Each binder was assayed against T2, human DLL3 extracellular domain (ECD) … (assay: SPR (Biacore), 37 C; scFv-Fc captured on chip, human DLL3 ECD in solution; 1:1 Langmuir fit).
Experimental: as §1

Row | Binder | Kd [nM]
10 | B10 | 186
11 | B11 | 8.18
12 | B1 | 11.2
13 | B2 | 23.3
14 | B3 | 17.2
15 | B12 | 27.3
16 | B4 | < 1.2
17 | B5 | 40.8
18 | B6 | 5.53
19 | B13 | 3.82
20 | B7 | 48.4
21 | B8 | 26.3
22 | B9 | 23.3

The binders below were run against T3, cynomolgus monkey DLL3 extracellular … (assay: SPR (Biacore), 37 C; scFv-Fc captured on chip, cyno DLL3 ECD in solution; 1:1 Langmuir fit).
Experimental: as §1

Row | Binder | Kd [nM]
23 | B11 | 6.81
24 | B1 | 10.5
25 | B2 | 27
26 | B3 | 20.5
27 | B6 | 4.51
28 | B13 | < 0.97
29 | B7 | 46.8
30 | B8 | 28.8
31 | B9 | 21.8
